Measurements reported in the supplement of paper PMC10724198.

Columns and labels:
[1] = tested on: Saccharomyces cerevisiae; test: protein stability index of tFT-peptide fusion in deletion strain of DOA10 (PSI (0-1 scale)); higher = more stable (slower turnover)
Experimental: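 MPS profiling in S. cerevisiae of two library types built from selected 12-aa C-degron peptides (IN1, IN2, LN1, LN3, VN2, R1-R5, W1-W3, Atg1 and Rpa12 C-termini): saturation mutagenesis libraries and C-terminal +1 capping libraries (13 aa). Each peptide is fused to the C-terminus of a sfGFP-mCherry timer, after a GGGS linker. Cells are FACS-sorted into 8 mCherry/sfGFP bins and sequenced. PSI runs from 0 (unstable) to 1 (stable), measured once in wild type and in the das1Δ or doa10Δ background.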

[2] = tested on: Saccharomyces cerevisiae; test: protein stability index of tFT-peptide fusion in wild type (PSI (0-1 scale)); higher = more stable (slower turnover); settings: genetic background: wild type
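Throughout, for protein stability index of tFT-peptide fusion in deletion strain of DOA10: PSI per variant is the weighted mean of its sequencing read distribution over the sorted stability bins, counting only variants with over 10 reads summed across bins.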
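Throughout, for protein stability index of tFT-peptide fusion in wild type: PSI derived as read-weighted mean over the 8 sorting bins, only variants exceeding 10 total reads kept, mCherry placed adjacent to the peptide and sfGFP distal.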

| Sequence | protein stability index [1] | protein stability index [2] |
| --- | --- | --- |
| RSLYVLLPLYFR | 0.619 | 0.261 |
| RVTMLDAIYFRI | 0.614 | 0.52 |
| RVTNLDAIYFRI | 0.677 | 0.55 |
| RVTREDAIYFRI | 0.699 | 0.625 |
| RVTRLCAIYFRI | 0.339 | 0.178 |
| RVTRLDAHYFRI | 0.71 | 0.684 |
| RVTRLDAIEFRI | 0.7 | 0.704 |
| RVTRLDAIMFRI | 0.686 | 0.496 |
| RVTRLDAIYFAI | 0.542 | 0.481 |
| RVTRLDAIYFFI | 0.495 | 0.471 |
| RVTRLDAIYFMI | 0.173 | 0.162 |
| RVTRLDAIYFRIL | 0.0992 | 0.0595 |
| RVTRLDAIYFRW | 0.709 | 0.472 |
| RVTRLDAIYFRY | 0.722 | 0.447 |
| RVTRLDAIYFVI | 0.233 | 0.194 |
| RVTRLDAIYHRI | 0.723 | 0.662 |
| RVTRLDAIYIRI | 0.683 | 0.325 |
| RVTRLDAIYQRI | 0.707 | 0.664 |
| RVTRLDAIYTRI | 0.716 | 0.688 |
| RVTRLDAIYYRI | 0.716 | 0.582 |
| RVTRLDAPYFRI | 0.722 | 0.676 |
| RVTRLDAQYFRI | 0.683 | 0.668 |
| RVTSLDAIYFRI | 0.669 | 0.55 |
| RVYRLDAIYFRI | 0.587 | 0.321 |
| SLYMCSVGCWFR | 0.644 | 0.387 |
| TITLPMCPLLLR | 0.633 | 0.296 |
| TLYMCSVGCWFR | 0.614 | 0.375 |
| TVTRLDAIYFRI | 0.707 | 0.364 |
